From US6858210B1, “Therapeutic and diagnostic domain 1 β2GPI polypeptides and methods of using same” (La Jolla Pharmaceutical Co., priority 1998, dated 2005)

Columns and labels:
APS patient plasma = assay: Surface plasmon resonance (BIAcore): APS patient plasma/serum over immobilized β2GPI proteins; assay type: binding, human; design: key: Req = fitted equilibrium plateau BIAcore response; details: for Median Req / Req (mean ± sem): serum of 106 APS patients (GPL ≧ 20); for Req (mean ± sem): diluted 1:1
From the text: (§1) Reagents. CM5 chips, NHS and EDC and HBS-EP buffer were from BIAcore. Human haptoglobin (phenotyope 1—1), a protein containing the short consensus repeat motif found in β2GPI, was immobilized in a separate flow cell on the chip and used as a negative control. Recombinant β2GPI and domain-deletion mutants of β2GPI were expressed in Tn5 cells using the baculovirus protein expression system and purified from the supernatants by nickel-chelation affinity column. Iverson et al. (1998) Proc. Natl. Acad. Sci. USA 95:15542-15546. Normal human plasma samples were purchased (George King Biomedical) or obtained in-house. Patient plasma samples from individuals diagnosed with either primary or secondary (to lupus) antiphospholipid antibody syndrome were obtained from a number of clinical sources.
(§2) The 55 controls used in this study were derived from a heterogenous sample. Thirty control samples (15 male; 15 female; mean age 34 yrs, range 19-45 yrs) purchased from George King Bio-Medical (Overland Park, Kans.), 5 local volunteers (3 male, 2 female), 2 pooled commercial sources and 18 blood bank donors of unknown origin were included in the analysis. The patient samples were collected from several sources and included patients with histories of venous thrombosis, arterial occlusions, cerebrovascular occlusions, multiple miscarriages and thrombocytopenia. All patients included in the study had IgG antiphospholipid antibody level (GPL) levels>20 by internal assay.
Total IgG fraction was isolated from plasma using Immunopure Plus protein G agarose beads and Immunopure IgG binding and elution buffers according to the manufacturers recommendation (Pierce).
(§3) Surface Plasmon Resonance. All experiments were performed using a BIAcore™ 2000 instrument at 25° C. with a flow rate of 10 μL/minute. Chip equilibration and binding studies were performed with degassed HBS-EP buffer, which consists of 0.01 M HEPES pH 7.4, 0.15 M NaCl, 3 mM EDTA and 0.005% (v/v) surfactant P20. Covalent coupling of protein ligands through their free amino groups to the CM5 chip was accomplished by flowing 40 μL of 0.05 M NHS/0.2M EDC over the chip to activate the chip, followed by exposure to the appropriate protein ligand. Recombinant β2GPI(His)6, domain-deletion mutants of β2GPI and haptoglobin were immobilized by flowing 50 μL of a 25 μg/mL solution in 10 mM acetate, (pH 4.8) over the NHS-activated CM5 chip. The excess reactive groups on the chip surface are then quenched with 40 μL of 1 M ethanoloamine, (pH 8.5). Human plasma samples (130 μL) were diluted 1:1 with HBS-EP, flowed over the β2GPI chip, and response values were collected for 780 seconds. The chips were regenerated between sample exposures with 80 μL of 0.1 M glycine-HCl (pH 2.1), 0.1 M NaCl. Since the approach to binding equilibrium was incomplete during the measurement period, the equilibrium binding value (Req) was determined by fitting the association curves to the following equation using the manufacturers software (BiaEvaluation version 2.2, Uppsala, Sweden) Rt=Req(I−e^−ks(t−t0))+R0 where Rt is the measured BIAcore response at time t, Req is the equilibrium plateau response, t is time, t0 is initial time, k, is an apparent association constant (ks=kaC+kdis, where ka is the association constant, C is the analyte concentration and kdis is the dissociation constant), and R0 is a response offset. In some experiments total IgG fractions from human plasma samples were obtained from binding to and acid elution from protein G. The plasma remaining after binding to protein G was remixed with fresh protein G beads and isolated as IgG-stripped plasma. Neutralized IgG preparations and IgG-stripped plasma diluted 1:1 with buffer were flowed over the β2GPI chip as described above. Results and Discussion

Normal human plasma = assay: Surface plasmon resonance (BIAcore): control plasma/serum over immobilized β2GPI proteins; assay type: binding; details: serum of 55 controls; for Req (mean ± sem): diluted 1:1
From the text: as §1, §2
as §3, with “Neutralized IgG preparations and IgG-stripped plasma diluted 1:1 with buffer were flowed over the β2GPI chip as described above. Results and Discussion” left out

[1] = non-selective patient 6117, IgG-stripped Plasma (1:2)
[2] = non-selective patient 6117, Total IgG (1:4)
[3] = non-selective patient 6117, Whole Plasma (1:2)
[4] = non-selective patient 6194, IgG-stripped Plasma (1:2)
[5] = non-selective patient 6194, Total IgG (1:4)
[6] = non-selective patient 6194, Whole Plasma (1:2)
[7] = non-selective patient 6611, IgG-stripped Plasma (1:2)
[8] = non-selective patient 6611, Total IgG (1:4)
[9] = non-selective patient 6611, Whole Plasma (1:2)
[10] = non-selective patient 6627, IgG-stripped Plasma (1:2)
[11] = non-selective patient 6627, Total IgG (1:4)
[12] = non-selective patient 6627, Whole Plasma (1:2)
[13] = non-selective patient 6649, IgG-stripped Plasma (1:2)
[14] = non-selective patient 6649, Total IgG (1:4)
[15] = non-selective patient 6649, Whole Plasma (1:2)
[16] = non-selective patient 7013, IgG-stripped Plasma (1:2)
[17] = non-selective patient 7013, Total IgG (1:4)
[18] = non-selective patient 7013, Whole Plasma (1:2)
[19] = patient 6207, IgG-stripped Plasma (1:2)
[20] = patient 6207, Whole Plasma (1:2)
[21] = patient 6501, IgG-stripped Plasma (1:2)
[22] = patient 6501, Whole Plasma (1:2)
[23] = patient 6515, IgG-stripped Plasma (1:2)
[24] = patient 6515, Whole Plasma (1:2)
[25] = patient 6601, IgG-stripped Plasma (1:2)
[26] = patient 6601, Whole Plasma (1:2)
[27] = patient 6626, IgG-stripped Plasma (1:2)
[28] = patient 6626, Whole Plasma (1:2)
[29] = patient 6642, IgG-stripped Plasma (1:2)
[30] = patient 6642, Whole Plasma (1:2)
[31] = patient 6701, IgG-stripped Plasma (1:2)
[32] = patient 6701, Whole Plasma (1:2)
[33] = patient 6703, IgG-stripped Plasma (1:2)
[34] = patient 6703, Whole Plasma (1:2)
[35] = patient 7015, IgG-stripped Plasma (1:2)
[36] = patient 7015, Whole Plasma (1:2)
[37] = patient 7201, IgG-stripped Plasma (1:2)
[38] = patient 7201, Whole Plasma (1:2)

B1: 12345: recombinant full length human β2GPI (domains 1-5) with C-terminal GlyHis6, baculovirus expressed (protein)
chain: GRTCPKPDDLPFSTVVPLKTFYEPGEEITYSCKPGYVSRGGMRKFICPLTGLWPINTLKCTPRVCPFAGILENGAVRYTTFEYPNTISFSCNTGFYLNGADSAKCTEEGKWSPELPVCAPIICPPPSIPTFATLRVYKPSAGNNSLYRDTAVFECLPQHAMFGNDTITCTTHGNWTKLPECREVKCPFPSRPDNGFVNYPAKPTLYYKDKATFGCHDGYSLDGPEEIECTKLGNWSAMPSCKASCKLPVKKATVVYQGERVKIQEKFKNGMLHGDKVSFFCKNKEKKCSYTEDAQCIDGTIEVPKCFKEHSSLAFWKTDASDVKPCGHHHHHH
BIAcore Req (APS patient plasma; [1]): 0
BIAcore Req (APS patient plasma; [2]): 120
BIAcore Req (APS patient plasma; [3]): 324
BIAcore Req (APS patient plasma; [4]): 0
BIAcore Req (APS patient plasma; [5]): 470
BIAcore Req (APS patient plasma; [6]): 2046
BIAcore Req (APS patient plasma; [7]): 0
BIAcore Req (APS patient plasma; [8]): 251
BIAcore Req (APS patient plasma; [9]): 892
BIAcore Req (APS patient plasma; [10]): 0
BIAcore Req (APS patient plasma; [11]): 132
BIAcore Req (APS patient plasma; [12]): 324
BIAcore Req (APS patient plasma; [13]): 0
BIAcore Req (APS patient plasma; [14]): 253
BIAcore Req (APS patient plasma; [15]): 758
BIAcore Req (APS patient plasma; [16]): 0
BIAcore Req (APS patient plasma; [17]): 115
BIAcore Req (APS patient plasma; [18]): 241
BIAcore Req (APS patient plasma; [19]): 0
BIAcore Req (APS patient plasma; patient 6207, Total IgG (1:4)): 480
BIAcore Req (APS patient plasma; [20]): 1450
BIAcore Req (APS patient plasma; [21]): 0
BIAcore Req (APS patient plasma; patient 6501, Total IgG (1:4)): 732
BIAcore Req (APS patient plasma; [22]): 1526
BIAcore Req (APS patient plasma; [23]): 0
BIAcore Req (APS patient plasma; patient 6515, Total IgG (1:4)): 440
BIAcore Req (APS patient plasma; [24]): 1024
BIAcore Req (APS patient plasma; [25]): 0
BIAcore Req (APS patient plasma; patient 6601, Total IgG (1:4)): 266
BIAcore Req (APS patient plasma; [26]): 792
BIAcore Req (APS patient plasma; [27]): 49
BIAcore Req (APS patient plasma; patient 6626, Total IgG (1:4)): 1132
BIAcore Req (APS patient plasma; [28]): 1622
BIAcore Req (APS patient plasma; [29]): 48
BIAcore Req (APS patient plasma; patient 6642, Total IgG (1:4)): 480
BIAcore Req (APS patient plasma; [30]): 811
BIAcore Req (APS patient plasma; [31]): 0
BIAcore Req (APS patient plasma; patient 6701, Total IgG (1:4)): 460
BIAcore Req (APS patient plasma; [32]): 952
BIAcore Req (APS patient plasma; [33]): 0
BIAcore Req (APS patient plasma; patient 6703, Total IgG (1:4)): 556
BIAcore Req (APS patient plasma; [34]): 1001
BIAcore Req (APS patient plasma; [35]): 0
BIAcore Req (APS patient plasma; patient 7015, Total IgG (1:4)): 864
BIAcore Req (APS patient plasma; [36]): 2092
BIAcore Req (APS patient plasma; [37]): 0
BIAcore Req (APS patient plasma; patient 7201, Total IgG (1:4)): 292
BIAcore Req (APS patient plasma; [38]): 603
Median Req (APS patient plasma): 635
Req (mean ± sem) (APS patient plasma; listed as D1-5): 730 ± 42
Req (mean ± sem) (APS patient plasma; listed as β2-GPI(D1-5)): 730
Median Req (Normal human plasma): 201
Req (mean ± sem) (Normal human plasma; listed as D1-5): 328 ± 52
Req (mean ± sem) (Normal human plasma; listed as β2-GPI(D1-5)): 328

B2: -2345: recombinant β2GPI deletion mutant with domains 2-5 (protein)
chain: GRTPRVCPFAGILENGAVRYTTFEYPNTISFSCNTGFYLNGADSAKCTEEGKWSPELPVCAPIICPPPSIPTFATLRVYKPSAGNNSLYRDTAVFECLPQHAMFGNDTITCTTHGNWTKLPECREVKCPFPSRPDNGFVNYPAKPTLYYKDKATFGCHDGYSLDGPEEIECTKLGNWSAMPSCKASCKLPVKKATVVYQGERVKIQEKFKNGMLHGDKVSFFCKNKEKKCSYTEDAQCIDGTIEVPKCFKEHSSLAFWKTDASDVKPCGHHHHHH
Req (APS patient plasma; 43/106 APS patients with negligible interaction): < 9
BIAcore Req (APS patient plasma; [1]): 0
BIAcore Req (APS patient plasma; [2]): 79
BIAcore Req (APS patient plasma; [3]): 386
BIAcore Req (APS patient plasma; [4]): 0
BIAcore Req (APS patient plasma; [5]): 688
BIAcore Req (APS patient plasma; [6]): 3197
BIAcore Req (APS patient plasma; [7]): 0
BIAcore Req (APS patient plasma; [8]): 177
BIAcore Req (APS patient plasma; [9]): 1002
BIAcore Req (APS patient plasma; [10]): 0
BIAcore Req (APS patient plasma; [11]): 182
BIAcore Req (APS patient plasma; [12]): 549
BIAcore Req (APS patient plasma; [13]): 0
BIAcore Req (APS patient plasma; [14]): 127
BIAcore Req (APS patient plasma; [15]): 553
BIAcore Req (APS patient plasma; [16]): 0
BIAcore Req (APS patient plasma; [17]): 75
BIAcore Req (APS patient plasma; [18]): 167
BIAcore Req (APS patient plasma; [19]): 0
BIAcore Req (APS patient plasma; patient 6207, Total IgG (1:4)): 0
BIAcore Req (APS patient plasma; [20]): 19
BIAcore Req (APS patient plasma; [21]): 0
BIAcore Req (APS patient plasma; patient 6501, Total IgG (1:4)): 0
BIAcore Req (APS patient plasma; [22]): 333
BIAcore Req (APS patient plasma; [23]): 0
BIAcore Req (APS patient plasma; patient 6515, Total IgG (1:4)): 0
BIAcore Req (APS patient plasma; [24]): 259
BIAcore Req (APS patient plasma; [25]): 0
BIAcore Req (APS patient plasma; patient 6601, Total IgG (1:4)): 0
BIAcore Req (APS patient plasma; [26]): 84
BIAcore Req (APS patient plasma; [27]): 0
BIAcore Req (APS patient plasma; patient 6626, Total IgG (1:4)): 0
BIAcore Req (APS patient plasma; [28]): 37
BIAcore Req (APS patient plasma; [29]): 0
BIAcore Req (APS patient plasma; patient 6642, Total IgG (1:4)): 0
BIAcore Req (APS patient plasma; [30]): 8
BIAcore Req (APS patient plasma; [31]): 0
BIAcore Req (APS patient plasma; patient 6701, Total IgG (1:4)): 0
BIAcore Req (APS patient plasma; [32]): 199
BIAcore Req (APS patient plasma; [33]): 0
BIAcore Req (APS patient plasma; patient 6703, Total IgG (1:4)): 0
BIAcore Req (APS patient plasma; [34]): 65
BIAcore Req (APS patient plasma; [35]): 0
BIAcore Req (APS patient plasma; patient 7015, Total IgG (1:4)): 0
BIAcore Req (APS patient plasma; [36]): 158
BIAcore Req (APS patient plasma; [37]): 0
BIAcore Req (APS patient plasma; patient 7201, Total IgG (1:4)): 0
BIAcore Req (APS patient plasma; [38]): 0
Median Req (APS patient plasma): 24
Req (mean ± sem) (APS patient plasma): 158 ± 36
Median Req (Normal human plasma): 103
Req (mean ± sem) (Normal human plasma): 160 ± 26
